Source: patent US20100048468A1 (Amgen, published 2010)
Like-named read-outs stand apart in the source and are kept apart here. Non-standard residues stand in square brackets, D forms with d. Primed or numbered codes have the meaning given here. No end group written: not given here. mPEG‑maleimide = 30 kD linear mPEG-maleimide attached to the Cys; Aib′ = alpha aminobutyric acid (source's wording)

What was measured:
[1] = molecular target: T1, human GLP-1 receptor (human, UniProt P43220 24-463); assay: cell-based or functional assay
[2] = molecular target: T2, mouse GLP-1 receptor (mouse, UniProt O35659 22-463); assay: cell-based or functional assay
T2 sequence (looked up): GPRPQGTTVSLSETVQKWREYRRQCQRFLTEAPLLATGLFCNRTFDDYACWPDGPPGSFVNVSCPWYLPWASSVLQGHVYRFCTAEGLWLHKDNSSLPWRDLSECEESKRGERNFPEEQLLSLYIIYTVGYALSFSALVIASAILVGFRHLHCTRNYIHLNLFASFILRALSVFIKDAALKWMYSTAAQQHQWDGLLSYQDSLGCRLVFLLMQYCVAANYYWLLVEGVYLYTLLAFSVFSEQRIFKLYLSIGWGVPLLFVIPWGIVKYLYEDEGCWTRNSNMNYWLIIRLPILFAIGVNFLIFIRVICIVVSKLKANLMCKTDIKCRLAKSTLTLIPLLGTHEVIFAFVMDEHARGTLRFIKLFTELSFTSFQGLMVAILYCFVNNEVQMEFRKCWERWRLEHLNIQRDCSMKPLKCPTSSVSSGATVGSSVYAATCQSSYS

[3] = molecular target: T1, human GLP-1 receptor; assay: 125I-GLP-1 displacement, membranes of CHOK1 cells expressing human GLP-1 receptor
Description: (§1) Membrane Preparation. […] Cells were sedimented at 1500 rpm for 10 minutes. The resulting pellets were homogenized in 15 mls of ice cold sucrose buffer (25 mM Tris-HCl, 0.32 M Sucrose, 0.25 g/L, sodium azide, pH 7.4) with a motorized, glass fitted, Teflon homogenizer. The homogenate was centrifuged at 48,000×g at 4° C. for 10 minutes, resuspended in 25 ml assay buffer (50 mM Tris-HCl, 5 mM MgCl₂, 10 mg/ml protease-free BSA, 0.1 mg/ml STI, and 0.1 mg/ml Pefabloc, pH 7.4) with a Tissue-Tearor (Biospec Products), then centrifuged again at 48,000×g for 10 minutes. The pellets were homogenized for a third time in 15 ml assay buffer using the Tissue-Tearor and again centrifuged at 48,000×g for 10 minutes. The resulting pellet was resuspended in assay buffer at a wet weight concentration of 4 mg/ml.
(§2) Ligand Binding Assay. Binding assays were performed in 96-well U-bottom plates. […] The reaction was terminated by rapid filtration through Unfilter-96 GF/C glass fiber filter plates (FilterMate 196 Packard Harvester, PerkinElmer, Shelton, Conn.) pre-soaked in 0.5% polyethylenimine, followed by three washes with 300 μl of cold 50 mM Tris-HCl, pH 7.4. Bound radioactivity was determined using a TopCount microplate scintillation and luminescence counter (Packard Instrument Company, PerkinElmer, Shelton, Conn.). Nonlinear regression analyses of resulting concentration curves were performed using GraphPad Prism (GraphPad Software, Inc., San Diego, Calif.).
The pegylated molecules were conjugated at the cysteine at position 38.

[4] = molecular target: T1, human GLP-1 receptor; assay: cell-based or functional assay; remark: listed apart in the source
Target sequence in this assay (P43220 24-463): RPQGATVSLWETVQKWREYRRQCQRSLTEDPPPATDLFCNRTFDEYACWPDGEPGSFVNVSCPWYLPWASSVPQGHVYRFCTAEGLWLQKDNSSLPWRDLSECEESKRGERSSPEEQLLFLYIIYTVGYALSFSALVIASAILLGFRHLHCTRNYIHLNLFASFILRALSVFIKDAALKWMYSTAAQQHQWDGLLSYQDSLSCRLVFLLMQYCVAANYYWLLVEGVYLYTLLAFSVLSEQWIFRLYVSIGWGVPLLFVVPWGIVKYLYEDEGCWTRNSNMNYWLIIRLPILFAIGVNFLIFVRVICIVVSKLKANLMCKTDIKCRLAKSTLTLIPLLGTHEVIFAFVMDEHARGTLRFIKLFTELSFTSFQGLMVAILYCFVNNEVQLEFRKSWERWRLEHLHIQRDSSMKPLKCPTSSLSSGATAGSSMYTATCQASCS

[5] = molecular target: T3, mouse GLP-1 receptor (mouse), O35659; assay: cell-based or functional assay
T3 chain: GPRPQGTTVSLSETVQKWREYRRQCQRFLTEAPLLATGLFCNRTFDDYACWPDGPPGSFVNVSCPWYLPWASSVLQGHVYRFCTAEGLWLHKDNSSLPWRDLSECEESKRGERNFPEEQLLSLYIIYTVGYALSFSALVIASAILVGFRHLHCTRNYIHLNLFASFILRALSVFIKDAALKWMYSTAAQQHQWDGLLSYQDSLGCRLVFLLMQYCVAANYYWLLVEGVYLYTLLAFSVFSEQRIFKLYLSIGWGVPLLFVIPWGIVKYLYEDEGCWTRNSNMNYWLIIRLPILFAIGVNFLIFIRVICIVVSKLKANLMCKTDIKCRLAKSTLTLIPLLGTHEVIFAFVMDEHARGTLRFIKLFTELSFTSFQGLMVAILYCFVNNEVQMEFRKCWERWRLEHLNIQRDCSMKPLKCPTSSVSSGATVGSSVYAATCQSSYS

[6] = molecular target: T1, human GLP-1 receptor; assay: cell-based or functional assay; remark: listed apart in the source
[7] = molecular target: T2, mouse GLP-1 receptor; assay: cell-based or functional assay; remark: listed apart in the source
[8] = molecular target: T1, human GLP-1 receptor; assay: 125I-GLP-1 displacement, membranes of CHOK1 cells expressing human GLP-1 receptor; remark: listed apart in the source
Description: as §1, §2
In vitro experiments were conducted to determine receptor binding and potency for a class of molecules having a glycine substitution at position 8, a cysteine substitution at position 22 and a variable C-terminus.

[9] = molecular target: T1, human GLP-1 receptor; assay: cell-based or functional assay; remark: listed apart in the source
[10] = molecular target: T1, human GLP-1 receptor; assay: 125I-GLP-1 displacement, membranes of CHOK1 cells expressing human GLP-1 receptor; remark: listed apart in the source
Description: as §1
as §2, with “Calif.). […]” for “Calif.).”

[11] = molecular target: T1, human GLP-1 receptor; assay: cell-based or functional assay; remark: listed apart in the source
[12] = molecular target: T2, mouse GLP-1 receptor; assay: cell-based or functional assay; remark: listed apart in the source

| Binder | EC50 human [6] [nM] | EC50 mouse [7] [nM] | IC50 [8] [nM] | other results |
| --- | --- | --- | --- | --- |
| HXEGTFTSDVSSYLEGQAAKEFIAWLVKGRGCSGG (Aib (2-aminoisobutyric acid) at position 8 (GLP-1 numbering; residue 2 of the entry), Unconjugated peptide) [H[Aib]EGT FTSDVSSYLEGQAAKEFIAWLVKGRGCSGG (SEQ ID NO: 11)] |  |  |  | EC50 human [1]: 4 nM; EC50 mouse [2]: > 50 nM; IC50 [3]: 100 nM |
| HXEGTFTSDVSSYLEGQAAKEFIAWLVKGRGCSGG (Aib at position 8 (residue 2 of the entry); 20k PEG on the cysteine at position 38 (GLP-1 numbering; residue 32 of the entry)) [cgGLP-17 (SEQ ID NO: 11 + 20k PEG)] |  |  |  | EC50 human [1]: 20 nM; EC50 mouse [2]: > 100 nM; IC50 [3]: 1000 nM |
| HXEGTFTSDVSSYLEGQAAKEFIAWLVKGRGCSGG (bAla (beta aminopropionic acid) at position 8 (GLP-1 numbering; residue 2 of the entry)) [H[bAla]EGT FTSDVSSYLEGQAAKEFIAWLVKGRGCSGG (SEQ ID NO: 12)] |  |  |  | EC50 human [1]: > 100 nM |
| HGEGTFTSDVSSYLEGCAAKEFIAWLVKGRG (modifications not checked) [cgGLP-9 (SEQ ID NO: 6 + 20k PEG dimer)] |  |  |  | EC50 human [4]: 1 nM; EC50 mouse [5]: 9 nM |
| HGEGTFTSDVSSYLEGCAAKEFIAWLVKGRG (Unconjugated peptide) [HGEGTFTSDVSSYLEGCAAKEFIAWLVKGRG (SEQ ID NO: 6)] | 0.24 | 1.4 | 70 |  |
| HGEGTFTSDVSSYLEGQEAKEKIAWLVKGRG (side-chain cyclic lactam between Glu18 and Lys22 (counted on the peptide; GLP-1 positions 24 and 28); C-terminal amide) [[Gly8]GLP1(7-37) cyclo[Glu18-Lys22] (SEQ ID NO: 39)] |  |  |  | EC50 human [9]: 0.8 nM |
| HGEGTFTSDVSSYLEGCAAKEFIAWLVKGRG (not fully specified (residue 17); also: dimer: two peptides on one mal-PEG-mal, one at each end) [cgGLP-3 (SEQ ID NO: 6 + 8k PEG dumbbell)] | 0.2 | 5.7 | 84 |  |
| HGEGTFTSDVSSYLEGQAKKEFIAWLVKGRG (side-chain cyclic lactam between Glu15 and Lys19 (counted on the peptide; GLP-1 positions 21 and 25); C-terminal amide) [[Gly8]GLP1(7-37) cyc[Glu15-Lys19] (SEQ ID NO: 36)] |  |  |  | EC50 human [9]: 0.15 nM |
| HGEGTFTSDVSSYLEGQAAKEFIAWLVKGRG (side-chain cyclic lactam between positions 21 (Glu) and 26 (Lys) (GLP-1 numbering; residues 15 and 20 of the entry); C-terminal amide) [[Gly8]cyclo[21-26] GLP1(7-37)-amide (SEQ ID NO: 42)] |  |  |  | EC50 human [9]: 0.6 nM |
| HGEGTFTSDVSSYLEGCAAKEFIAWLVKGRGSSGAPPPS (Unconjugated peptide) [HGEGTFTSDVSSYLEGCAAKEFIAWLVKGRGSSGAPPPS (SEQ ID NO: 7)] | 0.1 | 0.8 | 100 |  |
| HGEGTFTSDVSSYLEGCAAKEFIAWLVKGRGSSGAPPPS (not fully specified (residue 17); also: dimer: two peptides on one forked PEG-(maleimide)2) [cgGLP-14 (SEQ ID NO: 7 + 20k PEG dimer)] | 0.6 | 4 | 300 |  |
| HGEGTFTSDVSSYLEGCAAKEFIAWLKNGGPSSGAPPPS (not fully specified (residue 17); also: dimer: two peptides on one forked PEG-(maleimide)2) [cgGLP-15 (SEQ ID NO: 8 + 20k PEG dimer)] | 0.8 | 2 | 300 |  |
| HGEGTFTSDVSSYLEGCAAKEFIAWLKNGGPSSGAPPPS (Unconjugated peptide) [HGEGTFTSDVSSYLEGCAAKEFIAWLKNGGPSSGAPPPS (SEQ ID NO: 8)] | 0.07 | 0.3 | 100 |  |
| HGEGTFTSDVSSYLE[Aib′]QAAKEFIAWLVKGRGC(mPEG‑maleimide)SG-NH2 (also: PEG on Cys32: 30k, but the text says branched 40 kDa) [cgGLP-28 (SEQ ID NO: 22 + 30k PEG)] |  |  |  | IC50 [10]: 71 nM; EC50 human [11]: 0.1 nM; EC50 mouse [12]: 0.8 nM |
